Results on 48 sequences are retold here after the supplement of paper PMC10899765.

What all share (conditions): 20 nM; 72 h
Data set [1] deals with MCF10A. In words: percent viability (nuclei count relative to siNT); higher = more viable cells. On the procedure:
(§1)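 After 72 h, cells were fixed and stained with Hoechst and anti-fibrillarin, and nucleoli per nucleus were counted with CellProfiler. Values are plate-adjusted percent effect for the one-nucleolus and 5+ nucleoli phenotypes, normalised to siNT (0%) and to the positive controls siNOL11 or siKIF11 (100%), as the mean of biological triplicates. Percent viability is the nuclei count relative to siNT.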

The test system of data set [2] is MCF10A. In words: one-nucleolus phenotype percent effect (relative to siNT 0% and siNOL11 100%); higher = more cells with one nucleolus (ribosome biogenesis inhibition). On the procedure: as §1
For data set [3], the system named is MCF10A. Kind of data set: 5+ nucleoli phenotype percent effect (relative to siNT 0% and siKIF11 100%); higher = more cells with five or more nucleoli. The method, then: as §1

In the case of UAUAAAAUGAGGGCAGUAAGAC [hsa-miR-3163], the percent viability in data set [1] came to 53%. For the same sequence, the “one-nucleolus phenotype percent effect” value in data set [2] is -19.2%. Further, in data set [3], the “5+ nucleoli phenotype percent effect” value was found to be 30.5%.
Consider “AUUGCCUCUGUUCUAACACAAG [hsa-miR-3152-5p]”, for which the percent viability in data set [1] amounted to 129%. In addition, in data set [2], the “one-nucleolus phenotype percent effect” value was -11.4%. In addition, the “5+ nucleoli phenotype percent effect” value in data set [3] stood at 38.3%.
For GGAUGGAGGAGGGGUCU [hsa-miR-4534], in data set [1], the percent viability worked out at 46.8%. The “one-nucleolus phenotype percent effect” value in data set [2] was -5.6%. Further, the “5+ nucleoli phenotype percent effect” value in data set [3] is 31%.
Regarding “CUGGGCCCGCGGCGGGCGUGGGG [hsa-miR-6724-5p]”, the percent viability in data set [1] came to 74.9%. For the same sequence, in data set [2], the “one-nucleolus phenotype percent effect” value was -9.05%. The “5+ nucleoli phenotype percent effect” value in data set [3] came to 19.6%.
For UAACAAACACCUGUAAAACAGC [hsa-miR-5688], the percent viability in data set [1] was 101%. For the same sequence, the “one-nucleolus phenotype percent effect” value in data set [2] was -7.14%. Further, the “5+ nucleoli phenotype percent effect” value in data set [3] turned out to be 22.5%.
For the sequence “UGGUGCGGAGAGGGCCCACAGUG [hsa-miR-675-5p]”, the percent viability in data set [1] was determined as 39%. Also, the “one-nucleolus phenotype percent effect” value in data set [2] was 29.5%. Also, the “5+ nucleoli phenotype percent effect” value in data set [3] is -14%.
For UAACUGGUUGAACAACUGAACC [hsa-miR-582-3p], the percent viability in data set [1] stood at 106%. Further, the “one-nucleolus phenotype percent effect” value in data set [2] was -29.8%. Moreover, the “5+ nucleoli phenotype percent effect” value in data set [3] is 31.1%.
With UGGGAAUGGGGGUAAGGGCC [hsa-miR-6716-5p], the percent viability in data set [1] turned out to be 28.8%. For the same sequence, in data set [2], the “one-nucleolus phenotype percent effect” value stood at 19.7%. In data set [3], the “5+ nucleoli phenotype percent effect” value was -19.9%.
On the same counts, the results for “UCUCAGCUGCUGCCCUCUCCAG [hsa-miR-6787-3p]” are 116%, -24.6% and 41.8%.
For “AGGAGGGAGGAGAUGGGCCAAGUU [hsa-miR-1249-5p]” the same measures were 11.3%, 45.9% and -22.4%.
For AGGGCUUAGCUGCUUGUGAGCA [hsa-miR-27a-5p], the percent viability in data set [1] was 19.8%. Besides, the “one-nucleolus phenotype percent effect” value in data set [2] came to 23.8%. Further, the “5+ nucleoli phenotype percent effect” value in data set [3] is -11.3%.
As to “GAUCCCUUUAUCUGUCCUCUAG [hsa-miR-6866-3p]”, in data set [1], the percent viability amounted to 112%. Moreover, in data set [2], the “one-nucleolus phenotype percent effect” value is -33.5%. In data set [3], the “5+ nucleoli phenotype percent effect” value is 77.6%.
Take “AGCUACAUUGUCUGCUGGGUUUC [hsa-miR-221-3p]”: the percent viability in data set [1] is 59.9%. Besides, the “one-nucleolus phenotype percent effect” value in data set [2] was found to be 4%. Moreover, the “5+ nucleoli phenotype percent effect” value in data set [3] was -17.8%.
Take CACUGCAGGACUCAGCAG [hsa-miR-4418]: the percent viability in data set [1] was determined as 55.1%. Besides, the “one-nucleolus phenotype percent effect” value in data set [2] was -4.26%. For the same sequence, the “5+ nucleoli phenotype percent effect” value in data set [3] is -22.7%.
“AUGUCCCACCCCCACUCCUGU [hsa-miR-4433b-5p]”: the percent viability in data set [1] came to 28.3%. Also, the “one-nucleolus phenotype percent effect” value in data set [2] stood at 55.5%. For the same sequence, the “5+ nucleoli phenotype percent effect” value in data set [3] is -37.3%.
For ACCCCUCGUUUCUUCCCCCAG [hsa-miR-6795-3p] the same measures were 101%, -18.5% and 14.8%.
Turning to UUUUCAACUCUAAUGGGAGAGA [hsa-miR-1305], the percent viability in data set [1] was found to be 72.2%. Besides, in data set [2], the “one-nucleolus phenotype percent effect” value was determined as 9.11%. For the same sequence, the “5+ nucleoli phenotype percent effect” value in data set [3] was -6.71%.
For UGUGUCACUCGAUGACCACUGU [hsa-miR-597], the percent viability in data set [1] amounted to 47.8%. Also, the “one-nucleolus phenotype percent effect” value in data set [2] is 13.9%. Moreover, in data set [3], the “5+ nucleoli phenotype percent effect” value was -3.83%.
Regarding “CAAAAACCACAGUUUCUUUUGC [hsa-miR-548d-3p]”, the percent viability in data set [1] was 65.5%. Moreover, the “one-nucleolus phenotype percent effect” value in data set [2] is -0.45%. In addition, the “5+ nucleoli phenotype percent effect” value in data set [3] was -4.46%.
On to GCAGGUGCUCACUUGUCCUCCU [hsa-miR-764], for which the percent viability in data set [1] was 23.9%. Moreover, the “one-nucleolus phenotype percent effect” value in data set [2] was 49.3%. Moreover, the “5+ nucleoli phenotype percent effect” value in data set [3] was -23.5%.
As for AGGUUGCCUGUGAGGUGUUCA [hsa-miR-656-5p], the percent viability in data set [1] came to 17.5%. Further, the “one-nucleolus phenotype percent effect” value in data set [2] was 10.7%. The “5+ nucleoli phenotype percent effect” value in data set [3] was -1.12%.
On the same counts, the results for “UUGUGGGGUUGGAGAGCUGGCUG [hsa-miR-6796-5p]” are 17.2%, 45.3% and -31.5%.
Turning to GUGAGACUUCUCUCCCUUCAG [hsa-miR-6864-3p], the percent viability in data set [1] came out at 41.4%. For the same sequence, in data set [2], the “one-nucleolus phenotype percent effect” value turned out to be 14.5%. Moreover, the “5+ nucleoli phenotype percent effect” value in data set [3] is -9.96%.
Take CAAAGUGCCUCCCUUUAGAGUG [hsa-miR-519d]: the percent viability in data set [1] amounted to 72.3%. Also, the “one-nucleolus phenotype percent effect” value in data set [2] was -20.2%. In addition, the “5+ nucleoli phenotype percent effect” value in data set [3] is 62.9%.
Take AAUCAUUCACGGACAACACUU [hsa-miR-382-3p]: the percent viability in data set [1] was determined as 97.5%. For the same sequence, the “one-nucleolus phenotype percent effect” value in data set [2] was -25.4%. Besides, in data set [3], the “5+ nucleoli phenotype percent effect” value turned out to be 36.3%.
UGCGUUUCUCCUCUUGAGCAG [hsa-miR-6854-3p]: in data set [1], the percent viability came to 23.5%. Also, the “one-nucleolus phenotype percent effect” value in data set [2] came out at 21.3%. For the same sequence, in data set [3], the “5+ nucleoli phenotype percent effect” value was -12.2%.
In the case of UCUGUGGAGUGGGGUGCCUGU [hsa-miR-7114-5p], the percent viability in data set [1] came to 16%. For the same sequence, in data set [2], the “one-nucleolus phenotype percent effect” value was found to be 15%. For the same sequence, in data set [3], the “5+ nucleoli phenotype percent effect” value was determined as 7.56%.
Consider “GGGGUAUUGUUUCCGCUGCCAGG [hsa-miR-503-3p]”, for which, in data set [1], the percent viability was 40.1%. Moreover, the “one-nucleolus phenotype percent effect” value in data set [2] was found to be 39%. For the same sequence, the “5+ nucleoli phenotype percent effect” value in data set [3] is -25.1%.
As for UGGACGGAGAACUGAUAAGGGU [hsa-miR-184], in data set [1], the percent viability was 43%. Further, the “one-nucleolus phenotype percent effect” value in data set [2] was -17.7%. In addition, the “5+ nucleoli phenotype percent effect” value in data set [3] worked out at 80.3%.
For the sequence UAACAGUCUCCAGUCACGGCC [hsa-miR-212-3p], the percent viability in data set [1] stood at 219%. For the same sequence, the “one-nucleolus phenotype percent effect” value in data set [2] is -19.5%. Further, the “5+ nucleoli phenotype percent effect” value in data set [3] was 29.7%.
As for UGCAGCUCUGGUGGAAAAUGGAG [hsa-miR-4660], in data set [1], the percent viability was determined as 43.5%. The “one-nucleolus phenotype percent effect” value in data set [2] was determined as 1.97%. Further, in data set [3], the “5+ nucleoli phenotype percent effect” value is -12.2%.
For UGCCUCCCUGACAUUCCACAG [hsa-miR-6778-3p] the same measures were 7.57%, 10.1% and -21%.
Turning to CCGCCUUCUCUCCUCCCCCAG [hsa-miR-6880-3p], the percent viability in data set [1] was 117%. The “one-nucleolus phenotype percent effect” value in data set [2] was -31.4%. The “5+ nucleoli phenotype percent effect” value in data set [3] was found to be 65.6%.
On to “UACAAGUCAGGAGCUGAAGCAG [hsa-miR-6882-5p]”, for which the percent viability in data set [1] was determined as 45.8%. For the same sequence, the “one-nucleolus phenotype percent effect” value in data set [2] is -8.28%. In data set [3], the “5+ nucleoli phenotype percent effect” value was 1.17%.
As to CUAGGUAUGGUCCCAGGGAUCC [hsa-miR-331-5p], the percent viability in data set [1] came out at 111%. Further, the “one-nucleolus phenotype percent effect” value in data set [2] was -17.6%. The “5+ nucleoli phenotype percent effect” value in data set [3] is 19%.
For ACCAGGGCCAGCAGGGAAUGU [hsa-miR-6837-5p], in data set [1], the percent viability was 19.9%. The “one-nucleolus phenotype percent effect” value in data set [2] is 33.6%. For the same sequence, the “5+ nucleoli phenotype percent effect” value in data set [3] is -15%.
“UGGUCGACCAGUUGGAAAGUAAU [hsa-miR-412-5p]”: the percent viability in data set [1] turned out to be 46.8%. Also, the “one-nucleolus phenotype percent effect” value in data set [2] is 13.6%. Also, in data set [3], the “5+ nucleoli phenotype percent effect” value is -1.85%.
On the same counts, the results for UUUCCUCAUAUUCAUUCAGGA [hsa-miR-670-3p] are 46.6%, 4.99% and -7.45%.
In the case of CGUGGAUUGUCUGGAUGCAU [hsa-miR-8056], the percent viability in data set [1] was 41.8%. The “one-nucleolus phenotype percent effect” value in data set [2] is 12.9%. Besides, in data set [3], the “5+ nucleoli phenotype percent effect” value is -25.1%.
For GCUGCACCGGAGACUGGGUAA [hsa-miR-3130-3p] the same measures were 65%, -5.32% and 26.7%.
As to UUAAUUUUUUGUUUCGGUCACU [hsa-miR-4775], in data set [1], the percent viability was found to be 88.3%. Moreover, in data set [2], the “one-nucleolus phenotype percent effect” value is -18.6%. The “5+ nucleoli phenotype percent effect” value in data set [3] was 21.1%.
In the case of GCAGGGACAGCAAAGGGGUGC [hsa-miR-211-3p], the percent viability in data set [1] came out at 38.3%. For the same sequence, the “one-nucleolus phenotype percent effect” value in data set [2] turned out to be 9.24%. In addition, in data set [3], the “5+ nucleoli phenotype percent effect” value is -20.9%.
Take “UUCGGUAUACUUUGUGAAUUGG [hsa-miR-4798-5p]”: the percent viability in data set [1] is 78.1%. Besides, the “one-nucleolus phenotype percent effect” value in data set [2] was 0.862%. Moreover, the “5+ nucleoli phenotype percent effect” value in data set [3] was -0.701%.
As to CAAAAGUAAUUGUGGAUUUUGU [hsa-miR-548n], the percent viability in data set [1] turned out to be 137%. The “one-nucleolus phenotype percent effect” value in data set [2] is -23.6%. In data set [3], the “5+ nucleoli phenotype percent effect” value was found to be 52.2%.
As to AGAGCUUAGCUGAUUGGUGAAC [hsa-miR-27b-5p], the percent viability in data set [1] worked out at 78.6%. In data set [2], the “one-nucleolus phenotype percent effect” value worked out at 17.8%. The “5+ nucleoli phenotype percent effect” value in data set [3] was -22.4%.
Regarding “GUGGGUAGGGUUUGGGGGAGAGCG [hsa-miR-1229-5p]”, in data set [1], the percent viability was determined as 67.9%. In addition, the “one-nucleolus phenotype percent effect” value in data set [2] is -23.1%. Also, in data set [3], the “5+ nucleoli phenotype percent effect” value stood at 53.7%.
UGCCCUGAGACUUUUGCUC [hsa-miR-7976]: the percent viability in data set [1] was found to be 40.8%. Moreover, in data set [2], the “one-nucleolus phenotype percent effect” value stood at 17.4%. For the same sequence, the “5+ nucleoli phenotype percent effect” value in data set [3] was -8.65%.
Regarding GGGGAGCUGUGGAAGCAGUA [hsa-miR-920], in data set [1], the percent viability turned out to be 53.2%. For the same sequence, the “one-nucleolus phenotype percent effect” value in data set [2] is -6.81%. The “5+ nucleoli phenotype percent effect” value in data set [3] was 23.5%.
